Assay [1] has as its target T1, full length human tau protein 2N4R (hT40) (human, UniProt P10636 1-758).
T1 construct: recombinant protein; also called T441
As to the kind of experiment: sandwich ELISA, S1D12 mAb capture, colourimetric detection. How it is done:
(§1) Full length tau (hT40), at 1 μg/ml starting concentration was added to designated wells and double diluted across rest of the plates and left to incubate at R/T for 1 h. A series of detection scAbs with varying epitope recognition properties were added at 10 μg/ml to designated wells (FIG. 22). For colourimetric detection HRP conjugated anti-HuCk secondary antibody was used and the resulting immunoreaction was developed and absorbance at 450 nm measured as described previously. Cut-off point for a positive binding event was an absorbance value of 0.3 following background subtraction. In order to enhance the assay sensitivity, a chemiluminescent detection method was adopted where 50 μL SuperSignal ELISA Femto Substrate (Thermo Scientific) was added to each well following incubation with anti-HuCK HRP antibody and subsequent washing. The luminescence was read using Clariostar Plus microplate reader. A further modification to this protocol was done where various detection scAbs were directly conjugated with HRP and detected using chemiluminescent protocol as before.

Assay [2] deals with T1, full length human tau protein 2N4R …. The experiment in a line: sandwich ELISA, S1D12 mAb capture, chemiluminescence detection. On the procedure: as §1
On the technique in general: In an ELISA, binding on a coated surface is turned into a signal by an enzyme label.

The target in assay [3] is T2, DGAE + LMT Agg.
T2 construct: also called dGAE agitated in the presence of LMTM (Total, Supernatant, Pellet)
T2 sequence (fragment, as listed by the source limits assumed): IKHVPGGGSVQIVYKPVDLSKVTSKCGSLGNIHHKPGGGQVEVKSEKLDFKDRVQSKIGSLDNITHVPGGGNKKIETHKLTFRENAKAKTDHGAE
The experiment in a line: sandwich ELISA, 423 mAb capture, dGAE species titrated, scAb detection at 10 ug/ml [D00039 Figure 34F]. How it is done: (§2) For preparing the aggregates, 10 μl 10 mM DTT was added to 1000 μl 100 μM dGAE and agitated with/without LMTM (1:5 ratio) at 700 rpm for 24 h at 37° C. Following overnight agitation, one third of each sample was kept aside as ‘total’ and the rest was spun down at 16000×g for 30 min and separated into ‘supernatant’ and ‘pellet’. The pellet was then resuspended in half the original volume for further experiments. […] Doubling dilutions of dGAE aggregate ‘total’, ‘supernatant’ and ‘pellet’ samples at 10 μg/ml starting concentration were added to designated wells in doubling dilutions in 1×PBS. dGAE monomer (non-aggregated) was included as assay control. All double dilutions were done in final volumes of 100 μl. This was left to incubate on lab bench for 1 h followed by the addition of test scAbs at 10 μg/ml.

Assay [4] has as its target T1, full length human tau protein 2N4R …. The experiment in a line: direct ELISA, coated hT40.
Assay [5] has as its target T3, human tau 296-390 (Line 1 transgene fragment) (human, UniProt P10636 613-707).
T3 construct: also called L1 fragment; 10-kDa tau fragment
As to the kind of experiment: Western blot of brain homogenates. In general terms: Immunoblotting shows a protein as a band on a membrane.

For assay [6], the target named is T4, mouse tau (Isoform Tau-A) (mouse, UniProt P10637 2-733).
T4 construct: endogenous protein in mouse brain homogenate or plasma; isoform in the samples not determined; also called endogenous mouse tau
T4 sequence (P10637 other isoform, or with tags, fused parts or gaps limits assumed): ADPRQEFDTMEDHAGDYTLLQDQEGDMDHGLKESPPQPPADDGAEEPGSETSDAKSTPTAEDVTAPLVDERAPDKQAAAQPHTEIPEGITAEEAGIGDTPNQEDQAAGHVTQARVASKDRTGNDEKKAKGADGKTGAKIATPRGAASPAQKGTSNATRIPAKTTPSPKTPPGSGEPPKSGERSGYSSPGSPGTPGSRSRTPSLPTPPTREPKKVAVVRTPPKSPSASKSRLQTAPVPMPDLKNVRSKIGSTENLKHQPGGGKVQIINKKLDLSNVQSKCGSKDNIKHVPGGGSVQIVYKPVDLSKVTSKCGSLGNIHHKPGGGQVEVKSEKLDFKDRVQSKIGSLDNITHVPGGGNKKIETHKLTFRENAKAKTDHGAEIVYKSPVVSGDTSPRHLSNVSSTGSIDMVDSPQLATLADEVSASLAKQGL
As to the kind of experiment: Western blot of brain homogenates.

The target in assay [7] is T2, DGAE + LMT Agg. As to the kind of experiment: sandwich ELISA, 423 mAb capture, dGAE species titrated, scAb detection at 10 ug/ml [D00041 Figure 34O]. On the procedure: as §2
For assay [8], the target named is T1, full length human tau protein 2N4R …. As to the kind of experiment: direct ELISA, coated hT40. This is another data set of the same source.

Substitutions are numbered along the chain they refer to. Read-outs that look alike come from different tables or passages of the source.

T1 sequence (P10636 other isoform, or with tags, fused parts or gaps limits assumed): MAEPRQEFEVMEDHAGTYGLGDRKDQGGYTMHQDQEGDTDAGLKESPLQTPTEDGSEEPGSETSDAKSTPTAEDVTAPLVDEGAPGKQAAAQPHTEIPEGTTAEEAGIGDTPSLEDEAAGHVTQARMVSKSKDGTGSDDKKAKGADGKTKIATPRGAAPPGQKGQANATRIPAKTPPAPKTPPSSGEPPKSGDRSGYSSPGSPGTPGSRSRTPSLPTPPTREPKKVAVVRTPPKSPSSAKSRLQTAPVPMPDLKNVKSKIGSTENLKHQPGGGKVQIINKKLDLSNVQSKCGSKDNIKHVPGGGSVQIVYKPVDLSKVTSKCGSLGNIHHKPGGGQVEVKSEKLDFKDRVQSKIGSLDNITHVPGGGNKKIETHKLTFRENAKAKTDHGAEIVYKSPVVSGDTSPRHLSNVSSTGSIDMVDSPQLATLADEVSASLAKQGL
T3 sequence (P10636 613-707): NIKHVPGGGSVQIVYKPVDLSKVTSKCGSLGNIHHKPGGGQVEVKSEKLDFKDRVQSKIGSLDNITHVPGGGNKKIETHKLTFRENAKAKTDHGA

B1: S1G10 scAb (scFv)
scFv: QVQLQESGPSLVKPSQTLSLTCTVSGFSLTSNSVGWVRQAPGKAPEWVAGIDTDGEEGYNPALNSRLSITRDTSKSQVSLSLSSVTSEDTAVYYCGRSYRADGLAYGYVQAIDYWGPGLLVTVSSEGKSSGASGESKVDDQAVLTQPSSMSGSLGQRVSITCSGSFIGISSVGWFQQLPGSGLRTIIVASDGRPSGVPDRFSMSKSGNTATLTISSLQAEDEADYFCGSSDRTQYTGVFGSGTRLTVLG
notes: scAb (scFv-HuCk-His)
Consider B1, for which the LoD in assay [1] was 2 ng/mL; in assay [2], 0.12 ng/mL.

B2: S1G2 scAb (scFv)
scFv: B1 scFv with L144V, M150V, Q234P
notes: scAb (scFv-HuCk-His)
In assay [2], B2 came in with a LoD of 0.12 ng/mL.

B3: CA9 scAb (scFv)
scFv: B1 scFv with A101S, S148A, M150V
notes: scAb (scFv-HuCk-His)
For B3, the binding result with DGAE + LMT Agg [3] was “binds”.

B4: CC7 scAb (scFv)
scFv: QVQLQESGPSLVKPSQTLSLTCTVSGFSLTSNAVIWVRQAPGKAPEWVALIDVDGDAAYDPALKSRLSITRDTSKSQVSLSLRSVTTEDTAVYYCARDYGSWGYVSDIDYWGPGLLVTVSSEGKSSGASGESKVDDRVVRTQPSSVSGSLGQRVSITCSGSYITGSSVGWFQQVPGSGLKTVIYDNNDRPSGVPDRFSGSKSGDTATLTISSLQAEDEADYYCASYDTSNIGLFGSGTRLTVLG
notes: scAb (scFv-HuCk-His)
With B4, the LoD amounted to 6 ng/mL in assay [1] and 3.33 ng/mL in assay [2].

B5: 412G11 (scFv)
scAb: QVRLQESGPSLVKPSQTLSLTCTVSGFSLTSYALGWVRQAPGRAPEWIGNIWRGGRIEYNPALKSRLSITRDTSKSQVSLSLSSVTTEDTAVYYCSRSGGDWGPGLLVTVSSEGKSSGASGESKVDDQAVLTQPSSVSGSLGQRVSITCSGSSSNVGYGNYVGWYQQVPGSAPKLLIYGATSRASGVPDRFSGSRSENTATLTISSLQAEDEADYYCASYDRSESVVFGSGTRLTVLG
One may read the EC50 (read off the curve) as the concentration at which the effect is half-maximal. Low values mean an effect from little substance, high ones a need for much substance. Consider B5, for which, in assay [4], the “EC50 (read off the curve)” value is around 6 µg/mL.

B6: CC7 mAb (antibody, mouse IgG2a, V domains shown)
VH: QVQLQESGPSLVKPSQTLSLTCTVSGFSLTSNAVIWVRQAPGKAPEWVALIDVDGDAAYDPALKSRLSITRDTSKSQVSLSLRSVTTEDTAVYYCARDYGSWGYVSDIDYWGPGLLVTVSS
VL: RVVRTQPSSVSGSLGQRVSITCSGSYITGSSVGWFQQVPGSGLKTVIYDNNDRPSGVPDRFSGSKSGDTATLTISSLQAEDEADYYCASYDTSNIGLFGSGTRLTVLG
notes: also called CC7 antibody
Take B6: the binding result in assay [5] and in assay [6] was “no binding (tested: 20 µg brain protein)” in each case.

B7: CE3 scAb (scFv)
scFv: QVRLQESGPSLVKPSQTLSVTCTVSGFSLISNAVGWVRQAPGKVPESLAGCSSDGKCYYNSALKSRLDITRDTSKNQISLSLSSVTTDDAAVYYCTRGYYPVYGYDYLGTIDYWGPGLLVTVSSEGKSSGASGESKVDDQAVLTQPSSVSGSLGQRVSITCSGSSSNVGRNDVAWFQQLPGSGLRTIIYGTTSRPSGIPDRFSGSKSGVTATLTIDSLQAEDEADYFCASGDSSAINDIFGSGTRLTVLG
notes: scAb (scFv-HuCk-His)
As to B7, the binding result in the assay with DGAE + LMT Agg [7] is “binds”.

B8: CB3 scAb (scFv)
scFv: QVQLQESGPSLVKPSQTLSLTCTVSGFSLSSVAVNWVRQAPGKVPEWLGGIISNGGTGYNPALKSRLSITRDTSKSQVSLALTHVTTEDTAVYYCGRGVEWEGSMDYLGPGLLVTVSSEGKSSGSGSETKVDDQSVLTQPSSVSGFLGQRVTITCSGSSSNVGAGSYVGWYQQVPGSGLRILIYGATKRASGLPDRFSGSRSGNTATLTISSLQAEDEADYYCVSYQTDFTLVFGSGTRLTVLG
notes: scAb (scFv-HuCk-His)
Regarding B8, the “EC50 (read off the curve)” value in assay [8] is around 0.1 µg/mL.

B9: CB7 scAb (scFv)
scFv: QVQLQESGPSLVKPSQTLSLTCTVSGFSLTNYRVGWVRQAPGKALEWVSNIRSGGTTWYNPALKSRLSITADTSKSQVSLSLSSVTTEDTAVYYCARDSSGDLYAYDYWGPGLLVTVSSEGKSSGASGESKVDDQAVLTQPSSVSRSLGQSVSMTCSGSSSNVGYGNYMAWFQQVPGSAPKLLIYGATSRASGVPDRFSGSRSGNTATLTISSLQAEDEADYYCASYDSTSGGVFGSGTRLTVLG
notes: scAb (scFv-HuCk-His)
As for B9, the LoD in assay [1] was found to be 15 ng/mL; in assay [2], 3.33 ng/mL.

B10: CB7 mAb (antibody, mouse IgG2a, V domains shown)
VH: QVQLQESGPSLVKPSQTLSLTCTVSGFSLTNYRVGWVRQAPGKALEWVSNIRSGGTTWYNPALKSRLSITADTSKSQVSLSLSSVTTEDTAVYYCARDSSGDLYAYDYWGPGLLVTVSS
VL: QAVLTQPSSVSRSLGQSVSMTCSGSSSNVGYGNYMAWFQQVPGSAPKLLIYGATSRASGVPDRFSGSRSGNTATLTISSLQAEDEADYYCASYDSTSGGVFGSGTRLTVLG
notes: also called CB7 antibody
On to B10, for which the binding result in assay [5] and in assay [6] was “no binding (tested: 20 µg brain protein)” each time.

B11: 412E10 scAb (scFv)
scFv: QVQLQESGPSLVKPSQTLSLTCTVSGFSVISDSVAWVRQAPGKVPEWLGASGSSGNKYYNPALKSRLSITRDTSKSQVSLSLSSVTTEDTAVYYCARGIIAGVDVWGRGLLVTVSSEGKSSGASGESKVDDQAVLTQPSSVSGSLGQRVSITCSGSSSNVGYGNYVGWYQQVPGSAPKLLIYGTAIRASGVPDRFSGSRSGDTATLTITSLQAEDEADYYCASYQSNYAFFGSGTRLTVLG
notes: scAb (scFv-HuCk-His)
In the case of B11, the LoD is 20 ng/mL in assay [1] and 0.37 ng/mL in assay [2].

B12: CA4 scAb (scFv)
scFv: QVQLQESGPSLVKPSQTLSLTCTVSGFSLTSYSVYWVRQAPGQALEWISIMYASGRVDYNPALKSRLSITRDTSKSQFSLSLSSVTTEDTAVYYCTRGIENWGPGLLVTVSSEGKSSGASGESKVDDDIQVTQSPSSLSASLTERVSITCRTSQSVNNYLSWYQQKPGQAPKLLIYYATRLYTDVPSRFSGSGSGTDYTLTITSLEADDTATYYCLQYDSTPLAFGGGTNVEIK
notes: scAb (scFv-HuCk-His)
Consider B12, for which the LoD came to 6 ng/mL in assay [1] and 0.37 ng/mL in assay [2].

These data come from patent US20250147051A1 (GTINVENT, published 2025).
